Source: patent US20220185907A1

Legend:
[1] = molecular target: CD38 on cells (Raji, Daudi, REH, CD38-transfected HEK293) (human) (UniProt P28907); assay: flow cytometry on Raji cells (express CD19 and CD38)
[2] = molecular target: CD38 on cells (Raji, Daudi, REH, CD38-transfected HEK293) (human) (UniProt P28907); assay: flow cytometry on Raji cells (express CD19 and CD38), 11 concentrations from 30 ug/mL
[3] = molecular target: CD38 on cells (Raji, Daudi, REH, CD38-transfected HEK293) (human) (UniProt P28907); assay: flow cytometry on Raji cells; top asymptote fixed at about the maximum response of Darzalex

Substance: Darzalex® (CD38 control) (antibody)
- EC50 [1]: 1.27 nM
- EC50 [2]: 0.195 µg/mL
- Max MFI [2]: 4.02e+06 MFI
- Adjusted EC50 [3]: 1.27 nM
